Measured values published in the nanobody polyreactivity screen of Harvey et al. (2022).

Assay: yeast display, Sf9 membrane polyspecificity reagent, FACS + sequencing; frameworks hold sequencing errors
In short: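 A nanobody's polyreactivity label depends on the gate it was sorted from. Yeast display cells were stained with 10% biotinylated, detergent-solubilized Sf9 membrane reagent for 1 hour at 4 °C, enriched on streptavidin microbeads and sorted by FACS. The low and high (top ~1%) gates were set on anti-HA fluorescence for expression and streptavidin fluorescence for reagent binding.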

Sequence | polyreactivity (PSR sort gate)
QVQLVESGGGLVQAGGSLRLSCAASGFIFEHYAMGWYRQAPGKERELVAAISRTGGRTYYADSVKGRFTISRDNAKNTVYLQMNSLKPEDTAVYYCAATAYSRLGVSSDYWGQGTQVTVSS | high polyreactivity
QVQLVESGGGLVQAGGSLRLSCAASGFIFELYAMGWYRQAPGKERDLVAVISYDGGSTYYADSVKGRFTISRDNAKNTVYLQMNSLKPEDTAVYYCNTYAGLVSPSDLYDYWGQGTQVTVSS | low polyreactivity
QVQLVESGGGLVQAGGSLRLSCAASGFIFEMYAMGWYRQAHGKERELVAAISSSGDSTYYADSVKGRFTISRDNEKNTVYLQMNSLIPEDNAVYYCATECGYALYDYWGQGTQVTVSS | low polyreactivity
QVQLVESGGGLVQAGGSLRLSCAASGFIFERYTMGWYRHAPGKERELVAAISDSGGSTYYADSVKGRFTISRDNAKNTVYLQMNSLKPEDTAVYYCAAKFRNYRPSKYYYWGQGTQVTVSS | high polyreactivity
QVQLVESGGGLVQAGGSLRLSCAASGFIFEYNAMGWYRQAPGKERELVAAITSSGGSTYYADSVKGRFTISRDNAKNTVYLQMNSLKPEDTAVYYCARVRRSAYYKDYYYWGQGTQVTVSS | high polyreactivity
QVQLVESGGGLVQAGGSLRLSCAASGFIFFPYVMGWYRQAPGKEREFVAAITGDGGSTYYADSVKGRFTISRDNAKNTVYLQMNSLKPEDTAVYYCAAEFGLWYWDWAASEDYWGQGTQVTVSS | high polyreactivity
QVQLVESGGGLVQAGGSLRLSCAASGFIFFTNAMGWYRQAPGKERELVAAITDDGSTYYADSVKGRFTISRDNAKNTVYLQMNSLKPEDTAVYYCNVVLQDPSYSWFWYDYDYWGQGTQVTVSS | high polyreactivity
QVQLVESGGGLVQAGGSLRLSCAASGFIFFYYAMGWYRQAPGKERELVAAISASGGSTYYADSVKGRFTISRDNAKNTVYLQLNSLKPEDTAVYYCAARYRKAESARWEYGYWGQGTQVTVSS | high polyreactivity
QVQLVESGGGLVQAGGSLRLSCAASGFIFGAYTMGWYRQAPGKESELVADISRRGGTTYYADSVKGRFTISRDNAKNTVYLQMNSLKPEDTAVYYCANVANFWYNTTLRGYYYWGQGTQVSVSS | high polyreactivity
QVQLVESGGGLVQAGGSLRLSCAASGFIFGDNAMGWYRQAPGKERELVAAITYSGGSTYYADSVKGRFTISRDYAKNTVYLQMNSLKPEDTAVYDCAASNQWSSTYLTYGYYYWGQGTQVTVSS | low polyreactivity
QVQLVESGGGLVQAGGSLRLSCAASGFIFGGYAMVWYRQAPGKERELVAAISSSGGSTYYADSVTGRFTISRDNAKNTVSLQMNSLKPEDTAVYYCAIVGWSRRYYYWGQGTQVTLSS | high polyreactivity
QVQLVESGGGLVQAGGSLRLSCAASGFIFGHYAMGWYRQAPGKERELVAAIRSRGGDRTYADSVKGRFTISRDNAKNTVYLQMNSLKPEDTAVYYCAADGPGTSEDDYWGQGTQVTVSS | high polyreactivity
QVQLVESGGGLVQAGGSLRLSCAASGFIFGINAMGWYRQAPGKERELVATITSGGGTNYADSVKGRFTISRDNAKNTVYLQMNSLKPEDTAVYYCAKAPDTQTSWSRQEGNYWGQGTQVTVSS | low polyreactivity
QVQLVESGGGLVQAGGSLRLSCAASGFIFGKNAMGWYRQAPGKERELVAVISWRGSSTYYADSVKGRFTISRDNAKNTVYLQMNSLNPEDTAVYYCAARYPARGTLYYWGQGTQVTVSS | low polyreactivity
QVQLVESGGGLVQAGGSLRLSCAASGFIFGLNALGWYRPAPGKERELDAAIRSASSTNYADSVKGRFTISRDNAKNTVFLQMNSLKPEDTAVYYCAAEYVTYQQGFWGYDYWGQGTQVTVSS | low polyreactivity
QVQLVESGGGLVQAGGSLRLSCAASGFIFGLNAMGWYRQAPGKERELVAVIAFSGGSTYYADSVKGRFTISRDHAKNTVYLQMNSLKPEDTAVYYCNAVTRYPHPREYDYWGQGTQVTVSS | high polyreactivity
QVQLVESGGGLVQAGGSLRLSCAASGFIFGLNAMGWYRQAPGKERELVAVIAFSGGSTYYADSVKGRFTISRDNAKNTVYLQMNSLKPEDTAVYYCNAVTRYPHPREYDYWGQGTQVTVSS | high polyreactivity
QVQLVESGGGLVQAGGSLRLSCAASGFIFGLYAMGWYRQAPGKERELVAAISGSGGSTYYADSVKGRFTISRDNAKNTVYLQMNSLKPEDTAVYYCNRAQGVHTYVYRYGYWGQGTQVTVSS | low polyreactivity
QVQLVESGGGLVQAGGSLRLSCAASGFIFGLYAMGWYRQAPGKERELVAAISRRGGSTYYADSVKGRFTISLDNAKNTVYLQMNSLKPEDTAVYYCATDHSYIDDWGQGTEVTVSS | high polyreactivity
QVQLVESGGGLVQAGGSLRLSCAASGFIFGLYAMGWYRQAPGKERELVASISRRGGSTYYADSVKGRFTISRDNAKNTVYLQMNSLKPEDTAVYYCNAVGRLYLYGSWGQGTQVTVSS | high polyreactivity
QVQLVESGGGLVQAGGSLRLSCAASGFIFGPNAMGWYRQAPGKERELVAAIRWSGSRTYYADSVKGRFTISRDNAKNTVYLQMNSLKPEDTAVYYCATTYGYYTYDYWGQGTQVTVSS | high polyreactivity
QVQLVESGGGLVQAGGSLRLSCAASGFIFGPYAMGWYRQAPGKERELVADITIDSGSTYYADSVKGRFTISRDNAKNTVYLQMNSLKPEDTAVYYCATDYWNEYEYWGQGTQVTVSS | low polyreactivity

Sequence | polyreactivity (PSR sort gate)
QVQLVESGGGLVQAGGSLRLSCAASGFIFGSNAMGWYRQAPGKERELVAAIDSSGGRTYYADSVKGRFTISRDNAKNTVYLQMISLKPEDTAVYYCNVYRWSQLFEYDYWGQGTQVTVSS | high polyreactivity
QVQLVESGGGLVQAGGSLRLSCAASGFIFGSYAMGWYRQAPGKERELVAAITSDGNTDYADSVKGRFTISRDNAKNTVYLQMNSLKPEDTAVYYCNKPYGAETALREFDYWGQGTQVTVSS | low polyreactivity
QVQLVESGGGLVQAGGSLRLSCAASGFIFGSYTMGWYRQAPGKERELVAAITTGGSTNYADSVKGRFTISRDNAKNTVYLQMNSLKPEDTAVYYCNAVWYYRGNPDIYGGLDYWGQGTQVTVSS | low polyreactivity
QVQLVESGGGLVQAGGSLRLSCAASGFIFGTNAMGWYRQAPGKERELVASISSTGGSTYYADSVKGRFTISRDNAKNTVYLQMNSLKPEDTAVYYCAADPYPEYIRYLPGVDYWGQGSQVTVSS | low polyreactivity
QVQLVESGGGLVQAGGSLRLSCAASGFIFGTYAMGWYRQAPGKERELVAAISSGGSTYYADSVKGRFTISRDNAKNTVYLQMNSLKPEDTAVYYCAKEGGTYRIFNYWGQGTQVTVSS | low polyreactivity
QVQLVESGGGLVQAGGSLRLSCAASGFIFGTYTMGWYRQAPGKERELVAAISKSSGSTYYADSVKGRFTISRDNAKNTVYLQMNSLKPEDTAVYYCAAPTRSYGTPPYDYWGQGTQVTVSS | low polyreactivity
QVQLVESGGGLVQAGGSLRLSCAASGFIFGWNAMGWYRQAPGKERELVATITRGSTYYADSVKGRFTISRDNAKNTVYLQMNSLKPEDTAVYYCNVVYYGRWANYDYWGQGTQVTVSS | low polyreactivity
QVQLVESGGGLVQAGGSLRLSCAASGFIFGWSGMGWYRLAPGKERELVAAITGSGVRTYYAASVKGRFTISRDNAENTVYLQMNRLKPEDTAVYYCARAGGYVGRGYKDQDGRGDYGGQGTQVTVSS | high polyreactivity
QVQLVESGGGLVQAGGSLRLSCAASGFIFGYNAMGWYRQAPGKEREFVAAISWTGGRTYYADSVKGRFTISRDNAKNTVYLQMNSLKPEDTAVYYCAALRGWLPGTRTRYYYWGQGTQVTVSS | high polyreactivity
QVQLVESGGGLVQAGGSLRLSCAASGFIFGYNAMGWYRQAPGKERELVAAITSRGDRTYYADSVKGRFTISRDNAKNTVYLQMNSLKPEDTAVYYCAKATRGYRSPYGSIGYYYWGLGTQVTVSS | high polyreactivity
QVQLVESGGGLVQAGGSLRLSCAASGFIFGYNAMGWYRQAPGKERELVAALDSGDSTYYADSVKGRFTLSRDNAKNTVYLQMNSLKPEDTAVYYCATDVTFVYDFGYFQFDYWGQGTQVTVSS | low polyreactivity
QVQLVESGGGLVQAGGSLRLSCAASGFIFGYYAMGWYRQAPGKERELVAAINKNGGSTYYADSVKGRFTISRDNAKNTVYLQMNSLKPEVTAVYYCAARARGYAWTYDYWGQGTQVTVSS | high polyreactivity
QVQLVESGGGLVQAGGSLRLSCAASGFIFGYYAMGWYRQAPGKERELVAAINYNDDSTYYADSVKGRFTISRDNAKNTVYLQMNSLKPEDTAVYYCAARRFWPGNSYYYRYYYWGQGTQVTVSS | low polyreactivity
QVQLVESGGGLVQAGGSLRLSCAASGFIFGYYAMGWYRQAPGKERELVAAITRSGGSTRYADSVKGRFTISRDKAKNTVYLQMNSLKPEDTAVYYCNAYAPRQLYGYDYWGQGTQVTVSS | high polyreactivity
QVQLVESGGGLVQAGGSLRLSCAASGFIFGYYVMGLYTQAPGKERELVAAITTSGGSTYYADSVKGRFTISRDNAKNTVYLQMNSLKPEDTAVYYCAADGSPSLLDYWGQVTQVTVSS | high polyreactivity
QVQLVESGGGLVQAGGSLRLSCAASGFIFHRYAMGWYRQAPGKERELVAAITGRGSSTYYADSVKGRFTISRDNAKNTVYLQMNCLKPEDTGVYYCNAYRYQVYDTGWFGYWGQGTQVTVSS | high polyreactivity
QVQLVESGGGLVQAGGSLRLSCAASGFIFHTTVMVSYRQAPAKERELVAAISSGDSTYYADSVKGRFTISRDNAKNTVYLHMNSLKPEDTEVYYCARNVNAQKVLGGFDSWGQGTQVTVSS | low polyreactivity
QVQLVESGGGLVQAGGSLRLSCAASGFIFIFYAMGWYRQAPGKERELVAAITWSDDSTYYADSVKGRFTISRDNAKNTVYLQMNSLKPEDTAVYYCAASYYWYHLRRKYDYWGQGTQVTVSS | low polyreactivity
QVQLVESGGGLVQAGGSLRLSCAASGFIFIFYAMGWYRQAPGKERELVAGISWSSSSTYYADSVKGRFTISRDNAKNTVYLLMNSLKPEDTAVYYFNAKHLPRHRDYWGQGTQVTVSS | low polyreactivity
QVQLVESGGGLVQAGGSLRLSCAASGFIFIRYAMGWYRQAPGKERELVAAINGGGSSTYYADSVKGRFTISRDNAKNTVYLQMNSLKPEDTAVYYCAADTDSWWYYLYYGDGFDYWGQGTQVTVSS | high polyreactivity
QVQLVESGGGLVQAGGSLRLSCAASGFIFIVYAMGWYRQAPGKERELVASITYSGGGTYYADSVKGRFTISRDNAKNTVYLQKNSLKPEDTAVYYCNADVSWSYSVYREYGMDYWGQGTQVTVSS | low polyreactivity
